The supplement of paper PMC10065799, “High-throughput profiling of sequence recognition by tyrosine kinases and SH2 domains using bacterial peptide display” (eLife, 2023)

Experiments:
c-Src SH2 = assay: SH2 binding enrichment of the phosphorylated peptide, bacterial display (enrichment ratio); higher = better substrate or ligand; peptides without Tyr show the background
Grb2 SH2 = Grb2 SH2 (UniProt P62993); assay: as above
SHP2-C SH2 = assay: as above
c-Abl (mouse) = assay: phosphorylation enrichment, bacterial display (enrichment ratio); higher = better substrate or ligand; peptides without Tyr show the background
FGFR1 = FGFR1 (UniProt P11362); assay: as above
Hck = Hck (UniProt P08631); assay: as above
Fes = Fes (UniProt P07332); assay: as above
FGFR3 = FGFR3 (UniProt P22607); assay: as above
EPHB1 = EPHB1 (UniProt P54762); assay: as above
Fer (mouse) = assay: as above
Jak2 = Jak2 (UniProt O60674); assay: as above
Fyn = Fyn (UniProt P06241); assay: as above
MERTK = MERTK (UniProt Q12866); assay: as above
AncSZ = assay: as above
c-Src = assay: as above
EPHB2 = EPHB2 (UniProt P29323); assay: as above
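Wherever SH2 binding enrichment of the phosphorylated peptide, bacterial display is given: peptide library displayed on the E. coli surface as eCPX fusions, selected cells deep-sequenced, score is each peptide's frequency after selection divided by its frequency in the input.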
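Wherever phosphorylation enrichment, bacterial display is given: 11-residue human phosphosite peptides and single-mutation variants displayed on the E. coli surface, counted by deep sequencing, each peptide's frequency after selection divided by its frequency in the unselected input library; frequency after pTyr selection over input frequency; kinase dosed for 20-30% of maximal phosphorylation in three min.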

Sequence of MERTK (Q12866 whole entry, looked up): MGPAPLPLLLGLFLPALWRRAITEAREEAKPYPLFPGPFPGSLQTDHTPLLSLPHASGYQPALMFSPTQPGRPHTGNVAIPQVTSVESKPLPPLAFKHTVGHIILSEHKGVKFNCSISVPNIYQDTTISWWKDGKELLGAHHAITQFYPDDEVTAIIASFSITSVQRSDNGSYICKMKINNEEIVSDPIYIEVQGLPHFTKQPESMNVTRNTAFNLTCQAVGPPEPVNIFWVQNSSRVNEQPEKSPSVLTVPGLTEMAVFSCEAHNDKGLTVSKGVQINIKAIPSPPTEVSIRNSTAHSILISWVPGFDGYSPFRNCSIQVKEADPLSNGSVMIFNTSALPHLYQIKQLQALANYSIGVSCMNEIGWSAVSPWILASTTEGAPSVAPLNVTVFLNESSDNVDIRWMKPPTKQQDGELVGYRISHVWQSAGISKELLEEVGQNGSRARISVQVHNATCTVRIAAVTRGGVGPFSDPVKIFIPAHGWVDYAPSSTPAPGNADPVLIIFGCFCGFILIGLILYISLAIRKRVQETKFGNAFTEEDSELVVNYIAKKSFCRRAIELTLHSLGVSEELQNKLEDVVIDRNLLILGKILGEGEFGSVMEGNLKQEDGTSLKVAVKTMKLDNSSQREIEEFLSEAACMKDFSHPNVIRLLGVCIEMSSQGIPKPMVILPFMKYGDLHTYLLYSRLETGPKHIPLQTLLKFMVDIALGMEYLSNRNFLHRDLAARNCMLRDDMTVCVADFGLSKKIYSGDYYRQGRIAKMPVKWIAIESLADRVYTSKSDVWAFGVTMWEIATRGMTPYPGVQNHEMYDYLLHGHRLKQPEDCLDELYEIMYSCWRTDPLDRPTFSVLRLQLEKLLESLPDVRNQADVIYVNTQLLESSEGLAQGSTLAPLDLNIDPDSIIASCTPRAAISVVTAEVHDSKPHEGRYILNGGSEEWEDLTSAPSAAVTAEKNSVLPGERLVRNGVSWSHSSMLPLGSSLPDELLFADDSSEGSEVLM
Sequence of Fyn (P06241 whole entry, looked up): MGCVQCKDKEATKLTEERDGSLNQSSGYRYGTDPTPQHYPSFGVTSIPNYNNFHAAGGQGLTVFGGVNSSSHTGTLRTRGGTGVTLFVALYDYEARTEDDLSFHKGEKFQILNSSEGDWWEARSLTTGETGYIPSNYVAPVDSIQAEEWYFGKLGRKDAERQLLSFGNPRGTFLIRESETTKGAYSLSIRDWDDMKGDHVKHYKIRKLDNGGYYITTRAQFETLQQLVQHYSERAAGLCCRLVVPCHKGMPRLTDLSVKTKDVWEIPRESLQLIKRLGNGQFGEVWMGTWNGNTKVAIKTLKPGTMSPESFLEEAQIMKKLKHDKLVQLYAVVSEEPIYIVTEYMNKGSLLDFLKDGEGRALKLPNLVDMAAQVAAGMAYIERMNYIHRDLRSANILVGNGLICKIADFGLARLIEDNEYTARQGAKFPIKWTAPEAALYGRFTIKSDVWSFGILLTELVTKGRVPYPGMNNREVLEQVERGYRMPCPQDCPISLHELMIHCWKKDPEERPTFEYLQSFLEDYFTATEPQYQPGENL
Sequence of FGFR1 (P11362 whole entry, looked up): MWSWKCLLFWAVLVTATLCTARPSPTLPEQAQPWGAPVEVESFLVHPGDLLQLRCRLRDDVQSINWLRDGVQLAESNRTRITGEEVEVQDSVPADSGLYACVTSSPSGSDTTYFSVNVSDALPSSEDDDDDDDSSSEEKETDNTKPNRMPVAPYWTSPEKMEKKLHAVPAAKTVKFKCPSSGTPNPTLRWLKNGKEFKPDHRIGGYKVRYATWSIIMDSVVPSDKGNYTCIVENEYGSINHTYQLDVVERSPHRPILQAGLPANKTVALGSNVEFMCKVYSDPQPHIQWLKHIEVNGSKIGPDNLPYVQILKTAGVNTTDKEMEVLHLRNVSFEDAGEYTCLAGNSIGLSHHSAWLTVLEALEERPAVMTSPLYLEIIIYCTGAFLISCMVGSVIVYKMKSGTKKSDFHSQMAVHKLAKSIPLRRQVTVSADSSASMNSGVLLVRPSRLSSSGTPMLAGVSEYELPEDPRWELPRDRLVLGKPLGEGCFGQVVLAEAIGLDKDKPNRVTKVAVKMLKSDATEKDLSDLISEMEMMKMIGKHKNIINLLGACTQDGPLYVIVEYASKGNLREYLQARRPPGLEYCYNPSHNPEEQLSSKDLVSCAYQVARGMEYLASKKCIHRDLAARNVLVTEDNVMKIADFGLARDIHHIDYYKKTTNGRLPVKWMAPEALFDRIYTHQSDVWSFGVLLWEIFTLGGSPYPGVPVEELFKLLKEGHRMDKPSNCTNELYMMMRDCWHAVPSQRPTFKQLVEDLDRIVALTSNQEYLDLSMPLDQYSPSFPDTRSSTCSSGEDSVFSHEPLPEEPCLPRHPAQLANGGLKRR
Sequence of Fes (P07332 whole entry, looked up): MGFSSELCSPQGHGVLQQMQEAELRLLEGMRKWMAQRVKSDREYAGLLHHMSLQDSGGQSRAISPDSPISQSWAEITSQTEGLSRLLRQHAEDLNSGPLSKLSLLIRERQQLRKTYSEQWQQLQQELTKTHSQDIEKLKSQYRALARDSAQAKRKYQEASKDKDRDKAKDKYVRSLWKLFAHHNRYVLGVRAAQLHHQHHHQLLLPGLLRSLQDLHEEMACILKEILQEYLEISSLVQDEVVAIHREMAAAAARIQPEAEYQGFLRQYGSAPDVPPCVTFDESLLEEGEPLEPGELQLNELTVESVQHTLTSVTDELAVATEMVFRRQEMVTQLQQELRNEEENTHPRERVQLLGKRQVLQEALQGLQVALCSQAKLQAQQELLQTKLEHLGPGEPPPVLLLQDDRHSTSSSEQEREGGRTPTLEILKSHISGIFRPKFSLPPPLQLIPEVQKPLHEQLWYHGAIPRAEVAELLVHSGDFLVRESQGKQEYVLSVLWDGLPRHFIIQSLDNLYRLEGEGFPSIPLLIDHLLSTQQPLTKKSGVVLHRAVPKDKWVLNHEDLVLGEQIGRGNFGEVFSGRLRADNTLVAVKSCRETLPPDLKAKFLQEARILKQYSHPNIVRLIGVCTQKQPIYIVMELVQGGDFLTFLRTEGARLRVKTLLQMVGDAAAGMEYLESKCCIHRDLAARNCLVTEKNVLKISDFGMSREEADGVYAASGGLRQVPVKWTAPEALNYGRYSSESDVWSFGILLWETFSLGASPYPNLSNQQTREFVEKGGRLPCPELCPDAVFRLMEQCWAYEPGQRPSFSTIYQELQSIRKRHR
Sequence of EPHB2 (P29323 whole entry, looked up, the tested form may be a part): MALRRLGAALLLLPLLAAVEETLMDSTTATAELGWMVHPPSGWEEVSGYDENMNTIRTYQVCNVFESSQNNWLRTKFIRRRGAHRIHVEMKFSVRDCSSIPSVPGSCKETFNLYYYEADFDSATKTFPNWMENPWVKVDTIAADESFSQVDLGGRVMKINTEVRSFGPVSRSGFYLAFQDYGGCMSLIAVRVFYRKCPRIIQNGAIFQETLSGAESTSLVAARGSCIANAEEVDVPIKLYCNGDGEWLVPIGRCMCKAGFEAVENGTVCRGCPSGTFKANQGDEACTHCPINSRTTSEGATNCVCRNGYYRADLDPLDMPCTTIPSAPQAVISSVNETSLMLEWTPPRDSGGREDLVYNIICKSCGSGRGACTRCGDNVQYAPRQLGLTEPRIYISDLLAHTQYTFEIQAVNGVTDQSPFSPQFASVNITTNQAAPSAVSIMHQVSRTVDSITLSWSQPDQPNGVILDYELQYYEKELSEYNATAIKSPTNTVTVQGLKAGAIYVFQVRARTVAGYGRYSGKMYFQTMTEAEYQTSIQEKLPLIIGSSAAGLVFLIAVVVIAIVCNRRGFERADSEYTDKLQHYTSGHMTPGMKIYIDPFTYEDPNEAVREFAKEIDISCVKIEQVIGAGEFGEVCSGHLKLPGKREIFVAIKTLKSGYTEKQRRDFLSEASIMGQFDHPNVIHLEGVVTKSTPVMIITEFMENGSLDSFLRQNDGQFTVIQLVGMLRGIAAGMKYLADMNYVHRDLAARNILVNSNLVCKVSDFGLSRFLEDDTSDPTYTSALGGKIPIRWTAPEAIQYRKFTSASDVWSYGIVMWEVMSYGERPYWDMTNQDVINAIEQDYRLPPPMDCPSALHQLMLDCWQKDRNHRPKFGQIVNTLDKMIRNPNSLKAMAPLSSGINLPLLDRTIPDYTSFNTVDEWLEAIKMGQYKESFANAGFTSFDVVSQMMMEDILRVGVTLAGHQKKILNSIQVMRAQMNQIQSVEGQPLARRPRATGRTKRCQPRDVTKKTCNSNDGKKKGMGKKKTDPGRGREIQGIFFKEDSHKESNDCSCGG
Sequence of Hck (P08631 whole entry, looked up): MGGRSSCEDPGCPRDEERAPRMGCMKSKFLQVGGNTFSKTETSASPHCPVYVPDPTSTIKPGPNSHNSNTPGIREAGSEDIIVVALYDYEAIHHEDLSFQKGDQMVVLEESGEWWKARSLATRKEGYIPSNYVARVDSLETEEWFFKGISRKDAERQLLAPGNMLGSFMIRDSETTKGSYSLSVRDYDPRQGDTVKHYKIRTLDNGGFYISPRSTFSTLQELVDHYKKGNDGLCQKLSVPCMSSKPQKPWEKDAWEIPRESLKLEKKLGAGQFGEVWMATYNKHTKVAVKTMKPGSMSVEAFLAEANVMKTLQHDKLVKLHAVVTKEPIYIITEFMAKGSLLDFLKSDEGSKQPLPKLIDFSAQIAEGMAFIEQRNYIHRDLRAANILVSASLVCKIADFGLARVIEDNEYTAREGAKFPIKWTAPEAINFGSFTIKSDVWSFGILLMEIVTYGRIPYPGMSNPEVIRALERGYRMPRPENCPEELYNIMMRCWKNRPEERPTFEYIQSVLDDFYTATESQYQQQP

| Sequence | SH2 binding enrichment (c-Src SH2) | SH2 binding enrichment (Grb2 SH2) | SH2 binding enrichment (SHP2-C SH2) | phosphorylation enrichment (c-Abl (mouse)) | phosphorylation enrichment (FGFR1) | phosphorylation enrichment (Hck) | phosphorylation enrichment (Fes) | phosphorylation enrichment (FGFR3) | phosphorylation enrichment (EPHB1) | phosphorylation enrichment (Fer (mouse)) | phosphorylation enrichment (Jak2) | phosphorylation enrichment (Fyn) | phosphorylation enrichment (MERTK) | phosphorylation enrichment (AncSZ) | phosphorylation enrichment (c-Src) | phosphorylation enrichment (EPHB2) |
| --- | --- | --- | --- | --- | --- | --- | --- | --- | --- | --- | --- | --- | --- | --- | --- | --- |
| PADSGYPAFLG [ATP6V1A_Y374_YF] | 0.423 | 0.765 | 0.502 | 1.12 | 0.981 | 0.959 | 1.88 | 1.36 | 1.51 | 0.759 | 1.1 | 1.04 | 0.87 | 1.72 | 0.772 | 0.6 |
| RPDSPYSRPHD [DOK2_Y271] | 1.29 | 0.729 | 0.422 | 0.419 | 0.364 | 0.367 | 0.519 | 0.485 | 0.258 | 0.379 | 0.436 | 0.317 | 0.369 | 0.71 | 0.372 | 0.49 |
| LTECGYSFTTT [ACTB_Y198_R196C] | 0.736 | 0.574 | 0.602 | 0.708 | 0.674 | 0.555 | 1.15 | 0.754 | 0.592 | 0.733 | 0.889 | 0.582 | 0.417 | 1.09 | 0.671 | 0.781 |
| AARVSYWLASG [DCHS1_Y1582_R1583W] | 0.527 | 1.17 | 0.733 | 0.617 | 0.622 | 0.555 | 1.17 | 0.781 | 0.613 | 0.634 | 0.825 | 0.573 | 0.443 | 1.18 | 0.364 | 0.732 |
| RDHYGYRQSVT [CD55_Y245] | 0.484 | 0.98 | 0.775 | 0.794 | 0.747 | 0.806 | 0.794 | 0.339 | 0.883 | 0.748 | 0.455 | 0.866 | 0.774 | 1.22 | 0.822 | 0.472 |
| MCDSHYLESRF [CLK1_Y56_S61F] | 0.66 | 0.905 | 0.854 | 0.608 | 0.509 | 0.522 | 0.867 | 0.603 | 0.447 | 0.44 | 0.793 | 0.472 | 0.504 | 0.78 | 0.443 | 0.568 |
| MQMEEYRGRVE [BTNL2_Y91_W94R] | 0.408 | 0.785 | 0.871 | 0.458 | 0.411 | 0.459 | 0.874 | 0.539 | 0.421 | 0.424 | 0.573 | 0.379 | 0.383 | 0.755 | 0.437 | 0.39 |
| LSAPWYLNRIS [HEXA_Y421] | 0.697 | 1.19 | 1.19 | 0.447 | 0.429 | 0.46 | 0.797 | 0.533 | 0.562 | 0.359 | 0.699 | 0.371 | 0.331 | 0.791 | 0.362 | 0.511 |
| VRFMAYTDETF [F8_Y450] | 0.498 | 0.734 | 0.719 | 0.789 | 0.608 | 0.487 | 1.19 | 0.746 | 0.657 | 0.494 | 1.2 | 0.516 | 0.456 | 1.04 | 0.433 | 0.612 |
| EEGRVYVFHLS [ITGAE_Y549_R552H_YF] | 0.482 | 0.888 | 0.567 | 0.825 | 0.557 | 0.46 | 1.25 | 0.756 | 0.672 | 0.648 | 0.958 | 0.512 | 0.48 | 1.18 | 0.522 | 0.573 |
| AKVKPYINGTS [IBTK_Y1064_V1065I] | 0.737 | 0.999 | 1.05 | 0.404 | 0.297 | 0.359 | 0.503 | 0.408 | 0.295 | 0.274 | 0.369 | 0.343 | 0.358 | 0.471 | 0.294 | 0.274 |
| SARHHYESLQT [BIN1_Y157] | 34.4 | 0.854 | 0.952 | 0.636 | 0.445 | 0.446 | 0.564 | 0.396 | 0.431 | 0.499 | 0.479 | 0.36 | 0.455 | 0.532 | 0.447 | 0.374 |
| RHTRSYDYMEG [FGF7_Y56] | 3.83 | 1.33 | 1.06 | 0.552 | 0.7 | 0.716 | 0.958 | 0.529 | 0.534 | 0.533 | 0.513 | 0.561 | 0.628 | 0.609 | 0.389 | 0.92 |
| TESALYGCTVL [KIAA1804_Y724] | 0.552 | 0.82 | 0.916 | 1.04 | 0.559 | 4.05 | 1.27 | 1.15 | 0.686 | 4.71 | 1.12 | 5.57 | 1.46 | 1.13 | 4.74 | 0.885 |
| PVKAAYQKVVA [HBB_Y131_Q128K] | 0.615 | 0.968 | 0.879 | 2.43 | 0.539 | 0.539 | 0.823 | 0.766 | 1.14 | 0.588 | 0.95 | 0.648 | 0.523 | 0.714 | 0.753 | 0.491 |
| ISTAGYSFPEL [EDAR_Y406_I408F] | 6.7 | 0.854 | 0.957 | 0.737 | 0.457 | 0.461 | 0.878 | 0.532 | 0.526 | 0.425 | 1.03 | 0.437 | 0.698 | 0.886 | 0.487 | 0.523 |
| ESPGLYGFLNV [BCR_Y910] | 0.479 | 0.822 | 0.598 | 0.717 | 0.527 | 2.24 | 1.1 | 0.646 | 0.586 | 1.23 | 0.922 | 1.48 | 1.05 | 1.09 | 1.23 | 0.574 |

More lines, main results first:

| SH2 binding enrichment (c-Src SH2) | SH2 binding enrichment (Grb2 SH2) | SH2 binding enrichment (SHP2-C SH2) | Sequence | phosphorylation enrichment (c-Abl (mouse)) | phosphorylation enrichment (FGFR1) | phosphorylation enrichment (Hck) | phosphorylation enrichment (Fes) | phosphorylation enrichment (FGFR3) | phosphorylation enrichment (EPHB1) | phosphorylation enrichment (Fer (mouse)) | phosphorylation enrichment (Jak2) | phosphorylation enrichment (Fyn) | phosphorylation enrichment (MERTK) | phosphorylation enrichment (AncSZ) | phosphorylation enrichment (c-Src) | phosphorylation enrichment (EPHB2) |
| --- | --- | --- | --- | --- | --- | --- | --- | --- | --- | --- | --- | --- | --- | --- | --- | --- |
| 0.518 | 0.652 | 1.06 | VQQVIYATRAL [MYH7_Y422_G425R] | 14.1 | 0.468 | 8.57 | 0.684 | 0.534 | 0.434 | 0.57 | 0.598 | 9.04 | 0.711 | 0.663 | 7.24 | 0.505 |
| 0.814 | 1.37 | 1.44 | ANAYIYVVQLP [L1CAM_Y420] | 0.734 | 1.25 | 0.714 | 1.17 | 1.18 | 0.875 | 0.478 | 1.14 | 0.841 | 1.53 | 1.33 | 1.04 | 0.735 |
| 36.9 | 1.2 | 2.08 | WDSSGYWTPEE [PAPPA2_Y908_C903W] | 0.672 | 0.855 | 0.449 | 1.08 | 0.87 | 0.521 | 0.569 | 1.28 | 0.53 | 0.502 | 1.41 | 0.453 | 0.533 |
| 2.57 | 0.783 | 1.04 | IQRSLYDCPAS [PDGFRA_Y762_R764C] | 1.47 | 0.592 | 2.25 | 0.973 | 0.706 | 2.37 | 4.18 | 0.825 | 0.732 | 3.85 | 1.38 | 0.81 | 2.5 |
| 0.377 | 0.84 | 1.13 | TVMGLYQKSSL [MYH7_Y609_V606M] | 0.525 | 0.412 | 0.573 | 0.797 | 0.618 | 0.657 | 0.527 | 0.707 | 0.404 | 0.601 | 0.824 | 0.563 | 0.516 |
| 0.806 | 1.04 | 0.774 | TNRSFYFKPSL [NUP153_Y382_V381F] | 1.35 | 0.954 | 0.533 | 0.993 | 0.63 | 0.646 | 0.406 | 3.54 | 0.428 | 2.6 | 0.988 | 0.491 | 0.555 |
| 0.553 | 0.962 | 0.665 | MSSHHCDYKKY [ZNF445_Y428_Y428C] | 0.517 | 0.965 | 0.372 | 0.661 | 0.437 | 0.366 | 0.388 | 0.475 | 0.472 | 0.432 | 0.633 | 0.452 | 0.385 |
| 0.599 | 0.844 | 0.845 | AGLVQYFMEHH [PTPN11_Y80_E76G_YF] | 0.741 | 0.538 | 0.565 | 1.12 | 0.782 | 0.655 | 0.474 | 0.962 | 0.513 | 0.456 | 0.955 | 0.452 | 0.592 |
| 0.535 | 0.842 | 0.688 | LEEFQYIGESQ [MSH2_Y856] | 1.25 | 0.733 | 0.558 | 1.62 | 1.11 | 1.03 | 0.918 | 2.43 | 0.722 | 0.61 | 2.09 | 0.882 | 1.19 |
| 0.77 | 0.812 | 0.502 | ASQEEYSAMRD [KRAS_Y64_G60S] | 0.681 | 0.714 | 0.531 | 0.946 | 0.68 | 0.577 | 0.435 | 0.976 | 0.487 | 0.496 | 1.08 | 0.508 | 0.58 |
| 0.844 | 0.991 | 0.87 | VDFQPYRKHKF [TEX37_Y28_YF] | 0.595 | 0.401 | 0.451 | 0.639 | 0.587 | 0.403 | 0.463 | 0.479 | 0.45 | 0.472 | 0.553 | 0.377 | 0.32 |
| 0.585 | 1.12 | 0.628 | HHTDECEFDEL [TGM1_Y134_Y134C_YF] | 0.858 | 0.605 | 0.586 | 1.1 | 0.545 | 0.423 | 0.463 | 1.05 | 0.488 | 0.471 | 1.07 | 0.727 | 0.426 |
| 0.435 | 0.676 | 0.636 | NAMRRHIEEFQ [MNS1_Y244_Y244H] | 0.628 | 0.348 | 0.366 | 0.741 | 0.497 | 0.398 | 0.346 | 0.672 | 0.367 | 0.469 | 0.634 | 0.347 | 0.411 |
| 1.03 | 0.962 | 0.937 | KNKKDYYDMYE [SLC26A3_Y526] | 0.579 | 6.27 | 0.73 | 0.851 | 4.04 | 1.13 | 0.543 | 0.67 | 0.601 | 0.408 | 1.13 | 0.579 | 0.738 |
| 0.606 | 1 | 0.748 | NDDDVYRSLEE [VAV2_Y142] | 0.898 | 0.608 | 0.665 | 1.23 | 0.793 | 0.6 | 0.526 | 1.24 | 0.53 | 0.524 | 1.19 | 0.584 | 0.722 |
| 8.2 | 0.747 | 2.11 | QDGYSYLSRQM [LDLR_Y847_P848L] | 0.541 | 0.995 | 0.646 | 0.94 | 0.664 | 0.517 | 0.562 | 0.784 | 0.305 | 1.26 | 0.71 | 0.464 | 0.467 |
